Measurements: US12099068B2, “Biomarkers for graft-versus-host disease” (Incyte Corporation, priority 2018, dated 2024)

System: plasma proteins
Test: Plasma proteins modulated between baseline and day 28 in responders (CR, VGPR, PR; n = 19), Example 6 (Table 13)
Format: in vivo, human
Conditions: plasma protein (OLINK NPX); responders (CR, VGPR, PR; n = 19); itacitinib 200 mg or 300 mg QD with corticosteroids; day 28 vs baseline
Experimental: Due to the limited sample size, steroid-naive (N=10) and steroid-refractory (N=18) patients were combined for further analysis. Broad proteomic analysis of over 1000 proteins was conducted by OLINK Proteomics (Watertown, MA) using a proximity extension assay as described by the manufacturer. Data are presented as normalized protein expression (NPX) in log 2 scale. Statistical differences were evaluated using unpaired and paired t tests, one-way […] (ANOVA), and Pearson Correlation. Significance was conferred when P<0.05.
Longitudinal differences in protein expression were analyzed by evaluating plasma samples from baseline/screening and day 28.

B1: LAIR1 (protein, UniProt Q6GTX8 22-287, looked up)
Leukocyte-associated …: QEEDLPRPSISAEPGTVIPLGSHVTFVCRGPVGVQTFRLERDSRSTYNDTEDVSQASPSESEARFRIDSVREGNAGLYRCIYYKPPKWSEQSDYLELLVKESSGGPDSPDTEPGSSAGPTQRPSDNSHNEHAPASQGLKAEHLYILIGVSVVFLFCLLLLVLFCLHRQNQIKQGPPRSKDEEQKPQQRPDLAVDVLERTADKATVNGLPEKDRETDTSALAAGSSQEVTYAQLDHWALTQRTARAVSPQSTKPMAESITYAAVARH
Fold Change, Decreased Expression from Baseline to Day 28: −1.3173

B2: RTN4R (protein, UniProt Q9BZR6 27-447, looked up)
Reticulon-4 receptor: CPGACVCYNEPKVTTSCPQQGLQAVPVGIPAASQRIFLHGNRISHVPAASFRACRNLTILWLHSNVLARIDAAAFTGLALLEQLDLSDNAQLRSVDPATFHGLGRLHTLHLDRCGLQELGPGLFRGLAALQYLYLQDNALQALPDDTFRDLGNLTHLFLHGNRISSVPERAFRGLHSLDRLLLHQNRVAHVHPHAFRDLGRLMTLYLFANNLSALPTEALAPLRALQYLRLNDNPWVCDCRARPLWAWLQKFRGSSSEVPCSLPQRLAGRDLKRLAANDLQGCAVATGPYHPIWTGRATDEEPLGLPKCCQPDAADKASVLEPGRPASAGNALKGRVPPGDSPPGNGSGPRHINDSPFGTLPGSAEPPLTAVRPEGSEPPGFPTSGPRRRPGCSRKNRTRSHCRLGQAGSGGGGTGDSEGS
Fold Change, Increased Expression from Baseline to Day 28: 1.195

B3: RASSF2 (protein, UniProt P50749 1-326, looked up)
Ras association …: MDYSHQTSLVPCGQDKYISKNELLLHLKTYNLYYEGQNLQLRHREEEDEFIVEGLLNISWGLRRPIRLQMQDDNERIRPPPSSSSWHSGCNLGAQGTTLKPLTVPKVQISEVDAPPEGDQMPSSTDSRGLKPLQEDTPQLMRTRSDVGVRRRGNVRTPSDQRRIRRHRFSINGHFYNHKTSVFTPAYGSVTNVRINSTMTTPQVLKLLLNKFKIENSAEEFALYVVHTSGEKQKLKATDYPLIARILQGPCEQISKVFLMEKDQVEEVTYDVAQYIKFEMPVLKSFIQKLQEEEDREVKKLMRKYTVLRLMIRQRLEEIAETPATI
Fold Change, Decreased Expression from Baseline to Day 28: −1.5477

B4: ITGB6 (protein, UniProt P18564 22-788, looked up)
Integrin beta-6: GCALGGAETCEDCLLIGPQCAWCAQENFTHPSGVGERCDTPANLLAKGCQLNFIENPVSQVEILKNKPLSVGRQKNSSDIVQIAPQSLILKLRPGGAQTLQVHVRQTEDYPVDLYYLMDLSASMDDDLNTIKELGSRLSKEMSKLTSNFRLGFGSFVEKPVSPFVKTTPEEIANPCSSIPYFCLPTFGFKHILPLTNDAERFNEIVKNQKISANIDTPEGGFDAIMQAAVCKEKIGWRNDSLHLLVFVSDADSHFGMDSKLAGIVIPNDGLCHLDSKNEYSMSTVLEYPTIGQLIDKLVQNNVLLIFAVTQEQVHLYENYAKLIPGATVGLLQKDSGNILQLIISAYEELRSEVELEVLGDTEGLNLSFTAICNNGTLFQHQKKCSHMKVGDTASFSVTVNIPHCERRSRHIIIKPVGLGDALELLVSPECNCDCQKEVEVNSSKCHHGNGSFQCGVCACHPGHMGPRCECGEDMLSTDSCKEAPDHPSCSGRGDCYCGQCICHLSPYGNIYGPYCQCDNFSCVRHKGLLCGGNGDCDCGECVCRSGWTGEYCNCTTSTDSCVSEDGVLCSGRGDCVCGKCVCTNPGASGPTCERCPTCGDPCNSKRSCIECHLSAAGQAREECVDKCKLAGATISEEEDFSKDGSVSCSLQGENECLITFLITTDNEGKTIIHSINEKDCPKPPNIPMIMLGVSLAILLIGVVLLCIWKLLVSFHDRKEVAKFEAERSKAKWQTGTNPLYRGSTSTFKNVTYKHREKQKVDLSTDC
Fold Change, Increased Expression from Baseline to Day 28: 1.152

B5: SCARF2 (protein, UniProt Q96GP6 44-871, looked up)
Scavenger receptor class F …: QELNPRGRNVCRAPGSQVPTCCAGWRQQGDECGIAVCEGNSTCSENEVCVRPGECRCRHGYFGANCDTKCPRQFWGPDCKELCSCHPHGQCEDVTGQCTCHARRWGARCEHACQCQHGTCHPRSGACRCEPGWWGAQCASACYCSATSRCDPQTGACLCHAGWWGRSCNNQCACNSSPCEQQSGRCQCRERTFGARCDRYCQCFRGRCHPVDGTCACEPGYRGKYCREPCPAGFYGLGCRRRCGQCKGQQPCTVAEGRCLTCEPGWNGTKCDQPCATGFYGEGCSHRCPPCRDGHACNHVTGKCTRCNAGWIGDRCETKCSNGTYGEDCAFVCADCGSGHCDFQSGRCLCSPGVHGPHCNVTCPPGLHGADCAQACSCHEDTCDPVTGACHLETNQRKGVMGAGALLVLLVCLLLSLLGCCCACRGKDPTRRPRPRRELSLGRKKAPHRLCGRFSRISMKLPRIPLRRQKLPKVVVAHHDLDNTLNCSFLEPPSGLEQPSPSWSSRASFSSFDTTDEGPVYCVPHEEAPAESRDPEVPTVPAEAPAPSPVPLTTPASAEEAIPLPASSDSERSASSVEGPGGALYARVARREARPARARGEIGGLSLSPSPERRKPPPPDPATKPKVSWIHGKHSAAAAGRAPSPPPPGSEAAPSPSKRKRTPSDKSAHTVEHGSPRTRDPTPRPPGLPEEATALAAPSPPRARARGRGPGLLEPTDAGGPPRSAPEAASMLAAELRGKTRSLGRAEVALGAQGPREKPAPPQKAKRSVPPASPARAPPATETPGPEKAATDLPAPETPRKKTPIQKPPRKKSREAAGELGRAGAPTL
Fold Change, Increased Expression from Baseline to Day 28: 1.1639

B6: IgG Fc receptor II-b (protein, UniProt P31994 43-310, looked up)
Low affinity immunoglobulin …: TPAAPPKAVLKLEPQWINVLQEDSVTLTCRGTHSPESDSIQWFHNGNLIPTHTQPSYRFKANNNDSGEYTCQTGQTSLSDPVHLTVLSEWLVLQTPHLEFQEGETIVLRCHSWKDKPLVKVTFFQNGKSKKFSRSDPNFSIPQANHSHSGDYHCTGNIGYTLYSSKPVTITVQAPSSSPMGIIVAVVTGIAVAAIVAAVVALIYCRKKRISALPGYPECREMGETLPEKPANPTNPDEADKVGAENTITYSLLMHPDALEEPDDQNRI
Fold Change, Decreased Expression from Baseline to Day 28: −1.3893

B7: SCGB3A2 (protein, UniProt Q96PL1 22-93, looked up)
Secretoglobin family 3A …: FLINKVPLPVDKLAPLPLDNILPFMDPLKLLLKTLGISVEHLVEGLRKCVNELGPEASEAVKKLLEALSHLV
Fold Change, Increased Expression from Baseline to Day 28: 1.3677

B8: RGMB (protein, UniProt Q6NW40 46-413, looked up)
Repulsive guidance molecule B: GDCQQPAQCRIQKCTTDFVSLTSHLNSAVDGFDSEFCKALRAYAGCTQRTSKACRGNLVYHSAVLGISDLMSQRNCSKDGPTSSTNPEVTHDPCNYHSHAGAREHRRGDQNPPSYLFCGLFGDPHLRTFKDNFQTCKVEGAWPLIDNNYLSVQVTNVPVVPGSSATATNKITIIFKAHHECTDQKVYQAVTDDLPAAFVDGTTSGGDSDAKSLRIVERESGHYVEMHARYIGTTVFVRQVGRYLTLAIRMPEDLAMSYEESQDLQLCVNGCPLSERIDDGQGQVSAILGHSLPRTSLVQAWPGYTLETANTQCHEKMPVKDIYFQSCVFDLLTTGDANFTAAAHSALEDVEALHPRKERWHIFPSSGN
Fold Change, Increased Expression from Baseline to Day 28: 1.1254

B9: GLO1 (protein, UniProt Q04760 2-184, looked up)
Lactoylglutathione lyase: AEPQPPSGGLTDEAALSCCSDADPSTKDFLLQQTMLRVKDPKKSLDFYTRVLGMTLIQKCDFPIMKFSLYFLAYEDKNDIPKEKDEKIAWALSRKATLELTHNWGTEDDETQSYHNGNSDPRGFGHIGIAVPDVYSACKRFEELGVKFVKKPDDGKMKGLAFIQDPDGYWIEILNPNKMATLM
Fold Change, Decreased Expression from Baseline to Day 28: −1.2571

B10: PVALB (protein, UniProt P20472 2-110, looked up)
Parvalbumin alpha: SMTDLLNAEDIKKAVGAFSATDSFDHKKFFQMVGLKKKSADDVKKVFHMLDKDKSGFIEEDELGFILKGFSPDARDLSAKETKMLMAAGDKDGDGKIGVDEFSTLVAES
Fold Change, Decreased Expression from Baseline to Day 28: −2.0291

B11: SCAMP3 (protein, UniProt O14828 1-347, looked up)
Secretory carrier-associated …: MAQSRDGGNPFAEPSELDNPFQDPAVIQHRPSRQYATLDVYNPFETREPPPAYEPPAPAPLPPPSAPSLQPSRKLSPTEPKNYGSYSTQASAAAATAELLKKQEELNRKAEELDRRERELQHAALGGTATRQNNWPPLPSFCPVQPCFFQDISMEIPQEFQKTVSTMYYLWMCSTLALLLNFLACLASFCVETNNGAGFGLSILWVLLFTPCSFVCWYRPMYKAFRSDSSFNFFVFFFIFFVQDVLFVLQAIGIPGWGFSGWISALVVPKGNTAVSVLMLLVALLFTGIAVLGIVMLKRIHSLYRRTGASFQKAQQEFAAGVFSNPAVRTAAANAAAGAAENAFRAP
Fold Change, Decreased Expression from Baseline to Day 28: −1.7405

B12: FAM3B (protein, UniProt P58499 30-235, looked up)
Protein FAM3B: ELIPDAPLSSAAYSIRSIGERPVLKAPVPKRQKCDHWTPCPSDTYAYRLLSGGGRSKYAKICFEDNLLMGEQLGNVARGINIAIVNYVTGNVTATRCFDMYEGDNSGPMTKFIQSAAPKSLLFMVTYDDGSTRLNNDAKNAIEALGSKEIRNMKFRSSWVFIAAKGLELPSEIQREKINHSDAKNNRYSGWPAEIQIEGCIPKERS
Fold Change, Increased Expression from Baseline to Day 28: 1.7951

B13: CLEC7A (protein, UniProt Q9BXN2 1-247, looked up)
C-type lectin domain family 7 …: MEYHPDLENLDEDGYTQLHFDSQSNTRIAVVSEKGSCAASPPWRLIAVILGILCLVILVIAVVLGTMAIWRSNSGSNTLENGYFLSRNKENHSQPTQSSLEDSVTPTKAVKTTGVLSSPCPPNWIIYEKSCYLFSMSLNSWDGSKRQCWQLGSNLLKIDSSNELGFIVKQVSSQPDNSFWIGLSRPQTEVPWLWEDGSTFSSNLFQIRTTATQENPSPNCVWIHVSVIYDQLCSVPSYSICEKKFSM
Fold Change, Decreased Expression from Baseline to Day 28: −1.8103

B14: SLAMF8 (protein, UniProt Q9P0V8 23-285, looked up)
SLAM family member 8: AQVLSKVGGSVLLVAARPPGFQVREAIWRSLWPSEELLATFFRGSLETLYHSRFLGRAQLHSNLSLELGPLESGDSGNFSVLMVDTRGQPWTQTLQLKVYDAVPRPVVQVFIAVERDAQPSKTCQVFLSCWAPNISEITYSWRRETTMDFGMEPHSLFTDGQVLSISLGPGDRDVAYSCIVSNPVSWDLATVTPWDSCHHEAAPGKASYKDVLLVVVPVSLLLMLVTLFSAWHWCPCSGKKKKDVHADRVGPETENPLVQDLP
Fold Change, Decreased Expression from Baseline to Day 28: −1.492

B15: STX16 (protein, UniProt O14662 1-325, looked up)
Syntaxin-16: MATRRLTDAFLLLRNNSIQNRQLLAEQVSSHITSSPLHSRSIAAELDELADDRMALVSGISLDPEAAIGVTKRPPPKWVDGVDEIQYDVGRIKQKMKELASLHDKHLNRPTLDDSSEEEHAIEITTQEITQLFHRCQRAVQALPSRARACSEQEGRLLGNVVASLAQALQELSTSFRHAQSGYLKRMKNREERSQHFFDTSVPLMDDGDDNTLYHRGFTEDQLVLVEQNTLMVEEREREIRQIVQSISDLNEIFRDLGAMIVEQGTVLDRIDYNVEQSCIKTEDGLKQLHKAEQYQKKNRKMLVILILFVIIIVLIVVLVGVKSR
Fold Change, Decreased Expression from Baseline to Day 28: −1.4673
